Source: the RNAGym collection of RNA variant scans (doi:10.1073/pnas.2313332121)

B1: TPR t1 (parent)
chain: GACCAAUCUGCCCUCAGAGCUCGAGAACAUCUUCGGAUGCAGAGGAGGCAGGCUUCGGUGGCGCGAUAGCGCCAACGUCCUCAACCUCCAAUGCAUCCCACCACAUGAUGAUGCCUGAAGAGCCUUGGUUUUUUG

Variants of: B1
Test: polymerase ribozyme fitness, log enrichment relative to wild type (log ratio); higher = more active; in vitro selection for triplet polymerase activity
Summary of the method: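 Genotype fitness is the logarithm of its enrichment divided by wild-type enrichment, using inverse-variance-weighted averages of replicates. That logarithm is base 2. Enrichment was measured by Illumina sequencing of input and output libraries from one triplicate in vitro selection round, with frozen incubation at −7 °C, on PCR-built, transcribed mutant libraries of each subunit of a heterodimeric triplet polymerase ribozyme, retaining genotypes with ≥10 input reads and ≥1 read per output.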

| Variant | polymerase ribozyme fitness (log ratio) |
| --- | --- |
| GCCAAACCUGCCCUCAGAGCUCGAGAACAUCUUCGGAUGCAGAAGAGGCAGGCUUGGGUGGCGCGAUAGCGCCAACGUCCUCAACCUCCAAUGUAUCCCACCACAUGAUGAUGCCUGAAGAGCCUUGGUUUUUUG | -1.93 |
| GCCCAAUCUGUCCUCAGAGCUCGAGAACAUCUUCGGAUGCAGAGGAGGCAGGCUUCGGUGGCGCGAUAGCGCCAACGUCCUCAACCUCCAAUGCAUCCCACCACAUGAUGAUGCCUGAAGAGCCUUGGUUUUUUG | -2.65 |
| GCCCAAUCUGCCUUCAGAGCUCGAGAACAUCUUCGGAUGCAGAGGAGGCAGGCUUCGGUGGCGCGAUAGCGCCAACGUCCUCAACUUCCAAUGCAUCCCACCACAUGAUUAUGCCUGAACAGCCUUGGUUUUUUG | -4.02 |
| GCCUAAUCUACCCUCAGAGCUCGAGAACAUCUUCGGAUGCAGAGGAGGCAGGCUUCCGUGUCGCGAUAGCGCCAACGUCCUCAACCUCCAAUGCAUCCCACCACAUGAUGAUGCCUGAAGAGCCUUGGUUUUUUG | -2.37 |
| GCCCAAUCUGCCCUCAGAGCUCGAGAACAUCUUCGGAUGCAGAGGAGGCAGGGUUCGGUGGCGCGAUAGGGCCAACGUCCUCAACCUCCAAUGCAUCCCACCACAUGAUGAUGCCUGAAGAGCCUUGGUUUUUUG | -5.19 |
| GCCCAAUCUGCCUUCAGAGCUCGAGAACAUCUUCGGAUGCAGAGGAGGCAGGCUUCGGUGGCGCGAUAGCGCCAACAUCCUCAACCUCCAAUGCAUCCCACCACAUGAUGAUGCCUGAAGAGUCUUGGUUUUUUG | 0.26 |
| GCCCAAUCUGCCAUCAGAGCUCGAGAACAUCUUCGGAUGCAGAGGAGGCAGGCUUCGGUGGCGCGAUAGCGCCAACGUCCUCAACCUCCAAUGCAUCCCACCACAUGAUGAUGCCUGAAGAGCCUUGGUUUUUUG | -2.71 |
| GCCCAAUCUGCCCUCAGAGCUCGAGAACAUCUUCGGAUGUAGAGGAGGCAGGCUUCGGUUGGGCGAUAGCGCCAACGUCCUCAACCUCCAAUGCAUCCCACCACAUGAUGAUGCCUGAAGAGCCUUGGUUUUUUG | -3.56 |
| GCGCAAUCUGCCCUCAGAGCUCGAGAACAUCUUCGGAUGCAGAGGAGGCAGGCUUCGGUGGCGCGAUAGCGCCAACGUCCUCAACCUCCGAUGCAUCCCACCACAUGAUGAUGCCUGAAGAGCCUUGGUUUUUUG | -3.04 |
| GCCCAAUCUGCCCUCAGAGCUCGAGAACAUCUUCGGAUGCAGAGGAGGCAGGCUUAGGUGGCACGAUAGCGCCAACGUCCUCAACCUCCAAUGCAUCCCACCACAUGAUGAUGCCUGAAGAGCCUUGGUUUUUUG | -4.79 |
| GCCCAAUCUGCACUCAGAGCUCGAGAACAUCUUCGGAUGCAGAGGAGGCAGGCUUCGGUGGCGCGAUAGCGCCAACGUCCUCAACCUCCAAUGCAUCCCACCAUAUGAUGAUGCCUGAAGAGCCUUGGUUUUUUG | -1.93 |
| GCCCAAUCUGCCAUCAGAGCUCGAGAACAUCUUCGGAUGCAGAGGAGGCAGGCUUCGGUGGCGCGAUAGCGUCAACGUCCUCAACCUCCAAUGCAUCCCACCACAUGAUGAUGCCUGAAGAGCCUUGGUUUUUUG | -4.81 |
| GCCCAAUCUGCCAUCAGAGCUAGAGAACAUCUUCGGAUGCAGAGGAGGGAGGCUUCGGUGGCCCGAUAGCGCCAACGUCCUCAACCUCCAAUGCAUCCCACCACAUGAUGAUGCCUGAAGAGUCUUGGUUUUUUG | -5.96 |
| GCCGAAUCUGCCCUCAGAGCUCGAGAACAUCUUCGGAUGCAGAGGAGGCACGCUUCGGUGGCGCGAUAGCGCCAACGUCCUCAACCUCCAAUGCAUCCCAACACAUGAUGAUGCCUGAAGAGCCUUGGUUUUUUG | -6.08 |
| GCCCAAUCUGCCCUCAGUGCUCGAGAACAUCUUCGGAUGCAGAGGAGGCAGGCUUCGGUGGCGCGAUAGCGCCAACGUCCUCAACCUCCAAUGCAUCCCACCACAUGAUGAUGCCUGAAGAGCAUUGGUUUUUUG | -3.22 |
| GCCCAAUCUGCCCUCAGAGCUCGAGAAUAUCUUCGGAUGCAGAGGAGGCAGGCUUCGGUGGCGCGAUAGCGCCAACGUCCUCAACCCCCAAUGCAUCCCACCACAUGAUGAUGCCUGAAGAGCCUUGGUUUUUUG | -3.82 |
| GCCGAAUCUGCCCUCAGAGCUCGAGAACAUCUUCGGAUCCAGAGGAGGCAGGCUUCGGUGGCGCGAUAUCGCCAACGUCCUCAACCUCCAAUGCAUCCCACUACAUGAUGAUGCCUGAAGAGCCUUGGUUUUUUG | -2.39 |
| GCCCAAUCUGCCCUCAGAGCUCGAGAACAUCUUCGGAUGCAGAGGAGGCAGGCUUCGGUGGCGCGAUAGCGUCAACGUCCUCAACCUCCAAUGCAUCCCACCACAUGAUGAUGCCUAAAGAGCCUUGGUUUUUUG | -3.25 |
| GCCCCAUCUGCCCUCAGAGCUCGAGAACAUCUUCGGAUGCAGAGGAGGCAGGCUUCGGUGGCGUGAUAGCGCCAACGUCCUCAACCUCCAAUGCAUCCCACCACAUGAUGAUGGCUGAAGAGCAUUGGUUUUUUG | -3.6 |
| GCGCAAUCUGCCCUCAGAGCUCGAGAAGAUCUUCGGAUGCAGAGGAGGCAGGCUUCGGUGGCGCGAUAGCGCCAACGUCCUGAACCUCCAAUGCAUCCCACCACAUGAUGAUGCCUGAAGCGCCUUGCUUUUUUG | -4.07 |
| GCCCAAUCUGUCCUCAGAGCUCGAGAACAUCUUCGGAUGCAGAGGAGGCAGGCUUCGGUGACGCGAUAGCGCCAACGUCCUCAACCUCCAAUGCAUCCCACCACAUGAUGAUGCCUGAAAAGCCUUGGUUUUUUG | -0.476 |

| Variant | polymerase ribozyme fitness (log ratio) |
| --- | --- |
| GCCCAAUCUGACCUCAGAGCUCGAGAACAUCUUCGGAUGCAGAGGAGGCAGGCUUCGGUAGCGCGAUAUCGCCAACGUCCUCAACCUCGAAUGCAUCCCACCACAUGAUGAUGCCUGAAGAACCUUGGUUUUUUG | -3.67 |
| GCUCAAUCUGCCCUCAGAGCUCGAGAACAUCUUCGGAUGCAGAGGAGGCAGGCUUGGGUGGCGCGAUAUCGCCAACGUCCUCAACCUCCAAUGCAUCCCACCACAUGAUGAUGCCUGAAGAGCCUUGGUUUUUUG | -4.15 |
| GCCCAAUCUGCACUCAGAGCUCGAGAACAUCUUCGGAUGCAGAGGAGGCAGGCUUCGGUGGCGCGAUAGCGCCAACGUCCUCAACCUCCAAUGCAUCCCACCACAUGAUAAUGCCUGAAGAGCCUUGGUUUUAUG | -2.17 |
| GCCACAUCUGCCCUCAGAGCUCGAGAACAUCUUCGGAUGCAGAGGAGGCAGGCUUCGGUGGCGCGAUAGCGCCAACGUCCUCAACCUCCAAUGCAUCCCACCACAUGAUGAUGCCUGAAGAGCCGUGGUUUUUUG | -0.48 |
| GCCCAAUCUGCCCUCAGAGCUCGAGAACAUCUUCGGAUGCCGAGGAGGCAGGCUUCGGUGGCGCGAUAGCGCCAACGUCCUCAACCUCCAAUGCAUCCCACCACAUGAUGAUGCCUGAAGAGCCUUGGUUUUUUG | -2.75 |
| GCCCAAUCUGUCCUUAGAGCUCGAGAACAUCUUCGGAUGCAGAGGAGGCAGGCUGCGGUGGCGCGAUAGCGCCAACGUCCUCAACCUCCGAUGCAUCCCACCACAUGAUGAUGCCUGAAGGGCCUUGGUUUUUUG | -0.451 |
| GCCUAAUCUGCCCUCAGAGCUCGAGAACAUCUUCGUAUGCAGAGGAGGCAGGCUUCGGUGGCGCGAUAGCGCCAACGUCCUCAACCUCCAAUGCAUCCCACCAUAUGAUGAUGCCUGAAGAGCCUUGGUUUUUUG | -2.28 |
| GCCCAAUCUGCCCUCAGAGCUCGAGAACAUCUUCGGAUGCAGAGGAGGCAGGCUUCGGUGGCGCGAUAGCGACAACGUCCUCAACCUCCAAUGCAUCCCACCACAUGAUGAUGGCUGAAGAGCCUUGGUUUUUUG | -4.02 |
| GCCCAAUCUGCCCUCAGAGCUCGAGAACAUCUUCGGAUGCAGAGGAGGCAGGCUUCGGUGGCGCGAUAGCGCCAACGUCCUCAACCUCCAAUGCAUCCCACCACAUGAUGAUGCCUGAAGAGCCUUGGUUUUUUG | -1.4 |
| GCCGAAUCUGCCCUCAGAGCUCGAGAACAUCUUCGGAUGCAGAGGAGGCAGGCUUCGGUGGCGCGAUAGCGCCAACGUCCUCAACCUCCAAUGCAUCCCACCACAUGAUGAUGACUGAAGAGCCUUGGUUUUUUG | -3.53 |
| GCCCAAUCUGCCCUCAGAGCUCGAGAACAUCUUCGGUUGCAGAGGAGACAGGCAUCGGUGGCGCGAUAGCGCAAACGUGCUCAACCUCCAAUGCAUCCCACCACAUGAUGAUGCCUGAUGAGCCUUGUUUUUUUG | -5.61 |
| GCCCAAUGUGCCCUCAGAGCUCGAGAACAUCUUCGGAUGCAGAGGAGUCAGGCUUCGGUGGCGCGAUAGCACCAACGUCCUCAACCUCCAAUGCAUCCCAUCACAUGAUGAUGCCUGAAGAGCCUUGGUUUUUUG | -2.14 |
| GCCCAAUCUGCCCUCAGAGCUCGAGAACAUCUUCGGAUGCAGAGGAGGCAGGCUUCGGUGGCGUGAUAGCGCCAACGUCCUCAACCUCCAAUGCAUCCCACCACAUGAUGAUGCCUGAAGAGCCUUGGUUUUUUG | -1.07 |
| GCCCAAUCUGUCCUCAGAGCUCGAGAACAUCUUCGGAUGCAGAGGAGGCAGGCUUCGGUGGCGCGAUAGCGCCAACGUCCUCAACCUCCAAUGCAUCCCACCACAUGAUGAUGGCUGAAGAGCCUUGGUUUUUUG | -4.14 |
| GCCAAAUCGGCGCUCAGAGCUCGAGAACAUCUUCGGAUGCAGAGGAGGCAGGCUUCGGUGGCGCGAUAGCGCCAACGUCCUCAACCUCCAAUGCAUCCCACCAUAUGAUGAUGCCCGAAGAGCCUUGGUUUUAUG | 0.375 |
| GCCCAAUAUGCCCUCAGAGCUCGAGAACAUCUUCGGAUGCAGAGGAGGCAGGCUUCGGUGGCGCGAUAGCGUCAACGUCCUCAACCUCCAAUGCAUCCCACCACAUGAUGAUGCCUGAAGAGUCUUGGUUUUUUG | -0.16 |
| GCCCAAUCUGCCCUCAGAGCUCGAGAGCUUCUUCGGAUGCAGAGGAGGCAGGCUUCGGUGGCGCGAUAGCGCCAACAUCCUCAACCUCCAAUGCAUCCCACCACAUGAUGAUACCUGAAGAGCGUUGGUUUUUUG | -3.05 |
| GCCCAAUCUGCCCUCAGAGCUCGAGAACAUCUUCGGCUGCAGAGGAGGCAGGCUUCGGUGGCGCGAUAGCGCCAACGUCCUCAACCUCCAAUGUAACCCACCACAUGAUGACGUCUGAAGAGCCUUGGUUUUUUG | -4.55 |
| GCCCAAUCUGCCCUCAGAGCUCGAGAACAUCUUCGGAUGCAGAGGAGGGAGGCUUCGGUGGCGCGAUAGCGCCAACGUCCUCAACCUCCAAUGCAUCCCACCACAUGAUGAUGCCUGAAGAGCCUUGGUUUUUUG | -2.18 |
| GCCCAAUCUGCCCUCAGAGCUCGAGAACAUCUUCGGAUGCAGAGGAGGCAGGCUUCGGUGGCGCGAUAGUGCCAACGUCCUCAACCUCCACUGCAUCCCAUCACAUGAUGAAGCCUGAAGAGCCUUGGCUUUUUG | -4.54 |
| GCCCAAUCUGGCCUCAUAGCUCGAGAACAUCUUCGGAUGCAGAGGAGGCACGCUCGGGUGGCGCGAUAGCGCCAACGUCCUCAACCUCCAAUGCAUCCCACCACAUGAUGAUGCCUGAAGAGCCUUGGUUUUUUG | -4.03 |
